Results reported in paper PMC5109225.

Columns and labels:
[1] = target: Bemisia tabaci B Cyclophilin B protein (Bemisia tabaci B (endogenous in whitefly adults))
[2] = target: Bemisia tabaci B Cyclophilin B protein (Bemisia tabaci B (endogenous in whitefly adults)); remark: listed apart in the source

For “Tomato yellow leaf curl virus coat protein (in virions) (natural protein)”, the TYLCV transmission rate to tomato test plants (one insect/plant) by whiteflies fed the Cyp inhibitor Cyclosporin A (2 μg/μl in 25% sucrose, 24 h) before virus acquisition; control fed 25% sucrose: 60% [1] was 27% and the TYLCV transmission rate to tomato test plants (one insect/plant) by whiteflies fed anti-CypB antibody (2 μg/μl in 25% sucrose, 24 h) before virus acquisition; control fed 25% sucrose: 60% [2] was 17%.
